According to the DeepSol protein solubility set:

Assay: soluble on expression in E. coli; label from the status in PepcDB or PDB records

Soluble on expression in E. coli, soluble:
HYIFPHARIKITRDSKDHTVSGNGLGIRIVGGKEIPGHSGEIGAYIAKILPGGSAEQTGKLMEGMQVLEWNGIPLTSKTYEEVQSIISQQSGEAEICVRLDLNM
MIQLKNVGITLSGKGYERFSLENINLEVNGEKVIILGPNGSGKTTLLRAISGLLPYSGNIFINGMEVRKIRNYIRYSTNLPEAYEIGVTVNDIVYLYEELKGLDRDLFLEMLKALKLGEEILRRKLYKLSAGQSVLVRTSLALASQPEIVGLDEPFENVDAARRHVISRYIKEYGKEGILVTHELDMLNLYKEYKAYFLVGNRLQGPISVSELLESSIVEGERNDALLVLDIMDKKVSIVKGDLGMKFGALGSLNRIYGIIGA
MSLSFKGFKVVMLILLSTQSYASKLASSIVCDSTIENPCIVQDSKTQFSPVIRYREVASIADVYGGNITGINKFHLSGSEQPSEKGWEAIAESISRKMGAETKKVIVLDLRQESHGYLNGRAITLVSAYNWINLGKSNSQSTLDQENWLAGLRSRKIVNGVLTVPQYVAKQYSQGKSMVVSTVKNEEYYVYKKGFDYYRIFISDHRAPLDSEVDALVALIKNNPEDTWYHVHCRGGKGRTTTVFAMFDMLKNADKVSFEEIIARQASIPPFYNLMVTNREIPELTPYYEQRLQFLIHFYEFARQSLMGYSGTWSEWKKLNEGHHHHHH
AIADTRSLQDFQDLCTFDVFKSFGHYYGYGVDQQALIDQEFKRIKGVTYLDHAGTTLFPESLIKGFHDDIPRNVYGNPHSHNSSSRLTHDTVESVRYKILAHFNTSPEDYSVIFTSGCTAALKLVADTFPWKPMSNKEPGSQFCYLTDNHTSVVGIRGATALQGVGTISVSPREVETRARNKTQTNGEEECSTPHLFCYPAQSNFSGRKYSLSYVKGIQSQQLYPACEHHGQWFVLLDAACFVSCSPLDLSQYPADFVPISFYKMFGFPTGLGALLVRNEAAEVLRKTYFGGGTAAAYLVEENYFIPKPNLASR
SSPEYAMEGIFSVKSDVFSFGVLVLEIVSGKRNRGFHNSGQDNNLLGYTWENWKEGKGLEIVDSIIVDSSSSMSLFQPHEVLRCIQIGLLCVQERAEDRPKMSSVIVPFCTR
AAMTLASQIATQLLDIKAVYLKPEDPFTWASGIKSPIYTDNRVTLSYPKTRDLIENGFVETIKAHFPEVEVIAGTATAGIPHGAIIADKMTLPFAYIRSKPKDHGAGNQIEGRVLKGQKMVIIEDLISTGGSVLDAAAAASREGADVLGVVAIFTYELPKASQNFKEAGIKLITLSNYTELIAVAKLQGYITNDGLHLLKKFKEDQVNWQQ
MKFAIIIPFYNAEKRLALSIDSIIKQTYSFLKHVEVLLINDGSTDRSSAIAHSYAEKYPSNIRVFDVPNGGPSKARNIGIHNVQEDTDFVGFLDADDLLSPNMLFSMVNFLEKSAVNMLVPAFYYLDDFGKKQKISPHKLNDRFTNGNRVVAIEKEPQAIHFYIGGTFFRFESLKQFVFDETLNFAEDQLLITKFLLENRSYGLIADAGYYYYRDLKQKGSLVSSAWKQPERYTPFLQKVYQTYLTNSKEIFGEVIPYVQYLIAYHAKLFFYKENIYFKEVLNEQEQEIFVRELQKILQEVGPEMIVALDTPLVVKEMMLSILRNGWPVQFKTAELEEVPLVTVKENYRPGKAVTVELLLEEARETLSDGGEFFASTSVGTAQTKVVKRKTAQTIWDIVVREEGTLEKVVTRLKPYQLKVQVFYQDKNQKITMTDLNVIKSVLGKLKRNKALKRKFKQGGVSLEHHHHHH
GRTVVVTTIMESPYVMYKKNHEMFEGNDKYEGYCVDLASEIAKHIGIKYKIAIVPDGKYGARDADTKIWNGMVGELVYGKAEIAIAPLTITLVREEVIDFSKPFMSLGISIMIKKGTPIESAEDLAKQTEIAYGTLDSGSTKEFFRRSKIAVYEKMWTYMRSAEPSVFTRTTAEGVARVRKSKGKFAFLLESTMNEYIEQRKPCDTMKVGGNLDSKGYGVATPKGSSLRTPVNLAVLKLSEAGVLDKLKNKWWYDKGECG

Soluble on expression in E. coli, not soluble:
MGHHHHHHSHMPFKLFKKLTISSVVTSATVNWATLASRTVFILPKRVLPYLRSVARLTRVVIAMDRYGGLLGGFLRAVPPVQKPLSLTDGNKFREGIMSEVGKYVSTLVDPRNMMLDSFHHLKHNKSLQGSFLVHAGTVSDQEVCGTPMFCYKDGLSNPEIDRLLTPISLTRLTVPNNENSDVFRIGNIIYSEDSGLFDIIPTLRTRLMERNLHEGLVFVGPLIKNINSSFVNKITTAIKGDTVLNESLSHGLVLKLPVEQFMDFETTNTFHYTGRLPMTHRSYIYYALGYVITADGTQSLLQKFFRTPIEGPEFTRLVRDYFAGEIRNFFLGDNDFGQGNFLMFGAVCRCGYFPEDSLLTRTRVSIKGGGLSLIEIPDFTVSRGPWQFI
MSLRQRFVLDTTAITDAGLRIKEGYESLCESAAEVLDLIALARLKLDISCYIPYPSVYTELTSFLKRYGCDEEIFTKLDTWLVKKTPNRYEVKIPAAIFYEYIITVRQKMNRGRRLAEEYILESSAITAKLEDKSKIEEEIGALISKFRDKYRAVMRQGILDSAPDLDVLLLAKELEAGVVSSDAGIRKWSERLGLRFVEAAKFPRMLKEYLKLMGSKDIVGWFESEEDEGHHHHHH
MGSDKIHHHHHHMFHTIDFSDIFSSDYSNKISFKKGEIIHSYRDYEEKTPQIGAILEGTAVLEGPTNEGRWMINALIGQHSLFGMESLLETKTAPELTEYRVRALENGTVLFIDREFLLNYLYANPQFFHLILDEVIVRYLFTSKNYKNINQAPIVKVTRILVEIIELLHLHQTEGAIELPVYVTQTFLADYCRSSRARVTEVLEELRESGLLLSKKPITISSHENLLNQIDSFQTGNGLLTR
MGSDKIHHHHHHMTGKTVDLKLPAKLDGLFKPCRYKVMYGGRGGGKSHGAASALLALGAQRPLRILCAREIQKSMRDSVHRLLKDKVAQLGLGHFYEITDFEIRGANGTLFVFSGLQSHTVDSIKSFEGIDIVWVEEGHGVSKKSWDVLTPTIRKEGSEIWITLNPDMETDETYRRFIAMPSEDTWLCEINWRDNPWFPEALNRERLKAQRSMNKEDYGNIWEGRPRMVSEGAVYRHEIQDAFHSGRVTLVPYDSSLPVHTVWDLGWNDAMTIGLVQRDLTSVRIIGYIEDTHRTLDWYVAELEKLPYRWGTDFLPHDGRTRNFQTGKSTMEILTGLGRKSVFVQNATGIEEGIRAARMLFPKVYFDKDKTARLLECLKRYGRQIHAKTGVAMGPLHDEYSHGADMFRYLAQAVDLMDTGSNTGYTETPVSDWRLY
MGSDKIHHHHHHMNKYIYLLAVVFGLSSCNDFLELSPTNKVIETDYYKTQEDLTEALVAAYDPLKWNAYNAYSSYELVSNIMSDDAETGGSTVSDQPQLQRVNDFTNWVTPTNLPEGLWGRSYEGVNRANIVIEKCPLLPEGTMSAELRDRYVAEAHFLRVFYYFQLWRFFGYIPYYETNLGLDDITTVPQLQPDEVYAKLIEDLDNNVIGKLPKVVPANEKGRATNGAAIAMKARIVLYQNDDTKMKEIASQLKELITDPAYQYDLIPDYKVLFDDEYEWCKESVFEVNYTEIGNSNDWAGKANQGNSDIIMLGARGLKDPNNVYVEGWGFAPVTKALNDAFLPDDPRKWTTIIDHEEFRAEGGTISSDVNQYTGYSVRKYHPRAGYSSTVGTEALNYKNNYRVIRFSDILLMASEALLRSGGSVGEAQDYYARVVKRAMGDDYKVPTVSLDNIYKERRYEFAMEGIRYWDLVRTNQAKDFIKGWDDTKKYLPIPQSEIDKSDGHLVQNPHF
MGSDKIHHHHHHMELPCSLLCFVETLAVLRRSKSLSNEIIATGSRLVAGPSGAQDRAMTATRYDKNAKNVLGQELVPCSLDPVTGFYRNGCCETGPHDLGLHTVCAVMTRDFLAFSKAQGNDLSTPRPDLAFPGLKPGDRWCLCAGRWKEALDAGMAPQVVLEATHEEMLAVVPLGVLKDHAAA
MKKVKSIGLIETLGMVGVVEAADAALKAANVTLLGYEFNGAGYMVIKLTGDVAAVKAAVSSGAATAQKLGNLVAAHVIPRPDDQVIDTEICGKDNVPPFNGSDSEPEDGKPSGSSSEKESKESTETAVKASEPKPATATADKEEAPLEKAAPEAKDAKDTKEAPAKQASKPEAKTKSSKPTASEAKNASSPKTPEKQADSGKTAPAKTDGGNKPKSRK
NEPFHLATERNRVAVMSSGGKESLTTFGMLREIGADVFPVFFNESGGHWKTAKIAYDYMKKNYSNVHKVWSNVDRFYSFMNGHMPMLDQKEIRKTADSYPVQ
NKNLWATIRGNFTYASSKFSKYEEPDYSATPWRSKIGTKLSQEFGLIAERLFVDEEDVANSPKQQFGEYMAGDIKYKDINHDGIIDEQDRVPIGYPTTPEIIYGFGFSIGYKDFDFNCFFQGSSRSSFFISPADISPFIQPNDPNNELGGKQATNALLQIVADDHWSEANQNMYAFWPRLSDTAISNNNQKSTWWLRDGTFLRMKSAEIGYTLPKRISSKAKLENFRIYVSGTNLFNISKFKTWDTEMGGNGLGYPVQRVFNIGVQLSL
MSLKSSTEKKLAAARGTAELIVEDAKKEAETTKKEALLEAKEENHRLRTEIENELRGRRTETQKAENRLLQREENLDRKDTSLSKREATLERKEESISKRQQQIEEKESKLAEMIQAEQTELERISALSKEEAKSIILNQVEEELTHDTAIMVKESENRAKEESDKKAKNILSLAIQRCAADHVAETTVSVVTLPNDEMKGRIIGREGRNIRTLETLTGIDLIIDDTPEAVILSGFDPIRREIARIALEKLVQDGRIHPARIEEMVDKARKEVDEHIREVGEQATFEVGIHSIHPDLIKILGRLRYRTSYGQNVLNHSLEVSKLAGILAGELGEDVTLAKRAGLLHDIGKAIDHEIEGSHVEIGVELATKYKENDVVINSIASHHGDTEATSVIAVLVAAADALSAARPGARSETLENYIRRLEKLEEISESYDGVEKSYAIQAGREVRIIVEPDTIDDLSSYRLARDIRKRIEEELDYPGHIKVTVIRETRAVEYAKEGHHHHHH
MDKSTPRRTYNLRSADRTTQNSPVSRQSLENHRNASVSLRKRSSTSSLQRIQSEFTFTDSATEERCSRKRRRTQQTHGLPFSSPDAINHQRAFHLDEHKVCSKLTTRLSIEVETSYGSFGKLPYDAVIHILTRTPYNLLSRMVMTSSCWNQTIGAYMRSGAFRRRWLLDIDIAPSSKPLDPFFDMGKLVRCLTINYEWKARLDCLKSFMTLAYESGALIAGLGKMIHAFTNRPDEDIVLEQIDDIVAMLLALVSGLKDDLSAVLFTPETDRELEELDNMPILREEMKLRKKTLNLFLNNGSSDPAHGVNKYFLSSLMKVFKTAHNALPTALFYLLFSPTTIQDDEEVIHWHRLSLLSVVTSEEAEELKPLSRAMCALIQCRNLKHVLPWSKNTIFNLMEEITTYPNPWSMSTFVALNVLEPELVPIGVVARMNRNHEDEAGDIICTMKMLLHRWDMDVYGVMESIIDTIKAVLKPYQRRILFDRCWDWHQRNIDEHRNQMGHFSDIRAEIESQIEVMPVLMKLL
MKRKHLSGKSIGIVFGTFAPMHVGHVDLITKEKRANDNVLVIVSGSNTQKDRGTRTGLSLNRRFRNVREIFYDDELIVVDKLDEADMPPYPEGWVPWVNRVKDLITKNTDGPEKITFYVGESEYVIELNRYYPQAQVELIECSVINISATEIRDNPIENWRFITKPFRRHFTRKVLVVGSASGGKTTLVKDLARTYNAPCSLEYAREYQEKYNVRDDELDTNDYIHLLTDQYAQTAEIIDNGQHSWLIFADTNSTVTKVYIDYYLKENISQEEFDLLDRLYQVTQAREKWDLIFVILPKSNYVDDGSRDMTMADNRTRDWFTKHLLDLLSPFKDKIVILVENCDSDSFFADNYHYAKKTIKERLHIEI
MNDLKSKSNIKLMKRVLTTYELRKYLKKYFCLTLDNYLVLAYLDVFKNDEGKYFMRDIISYIGIDQSRIVKSVKDLSKKGYLNKCRDPHDSRNVIIVVSVKQHNYIKNLLSEININET
